Ends that are not written are not given here.

Sequence of binding of human apoA-1 to isolated human MPO (P05164 279-745 limits assumed): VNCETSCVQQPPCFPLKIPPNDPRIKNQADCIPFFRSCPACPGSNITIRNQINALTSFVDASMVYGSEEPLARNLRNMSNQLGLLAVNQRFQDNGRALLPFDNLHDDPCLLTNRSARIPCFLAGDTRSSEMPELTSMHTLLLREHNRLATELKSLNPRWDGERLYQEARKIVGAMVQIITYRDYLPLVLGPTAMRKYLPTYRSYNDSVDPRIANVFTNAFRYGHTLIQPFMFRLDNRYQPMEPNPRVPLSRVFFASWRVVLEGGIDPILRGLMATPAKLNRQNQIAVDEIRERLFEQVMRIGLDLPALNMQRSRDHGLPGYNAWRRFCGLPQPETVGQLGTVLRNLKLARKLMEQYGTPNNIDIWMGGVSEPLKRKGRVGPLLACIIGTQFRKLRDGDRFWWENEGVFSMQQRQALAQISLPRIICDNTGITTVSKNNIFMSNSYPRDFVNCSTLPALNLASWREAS
Sequence of binding of human apoA-1 to isolated human MPO (P05164 165-278 limits assumed): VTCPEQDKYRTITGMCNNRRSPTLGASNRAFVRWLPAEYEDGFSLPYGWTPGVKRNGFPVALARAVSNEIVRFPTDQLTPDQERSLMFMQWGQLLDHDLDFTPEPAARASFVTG

In the test the target is binding of human apoA-1 to isolated human MPO (Homo sapiens, UniProt P05164). The test can be described thus: Binding of human apoA-1 to plate-bound MPO in the presence of peptide. To be noted: isolated human MPO bound to wells of a 96 well plate; apoA-1 binding determined in presence of peptide; FIG. 9. On the procedure:
Isolated human MPO was bound to the wells in a 96 well plate and then the binding of human apoA-1 to the MPO was determined in the presence of a peptide comprising the sequence N-Ac-(L) AEYHAKATEHLSTL, SEQ ID NO: 2 (also known as the L-ApoA-MPO peptide), a sequence comprising SEQ ID NO: 2 and D amino acids, also known as the D-apoA-MPO peptide, and a peptide comprising the sequence, N-Ac (L) KHETHSLAYAAET, SEQ ID NO: 4.
“D-apoA-MPO peptide: a sequence comprising SEQ ID NO: 2 (AEYHAKATEHLSTL) and D amino acids (also: D amino acids (positions not given here); listed as Homo sapiens)”: the “effect on binding of apo A-1 to MPO” value is “inhibited binding of apo A-1 to MPO”.

Regarding “N-Ac (L) KHETHSLAYAAET (Ac-KHETHSLAYAAET; listed as Homo sapiens) [SEQ ID NO: 4, reference compound]”, the “effect on binding of apo A-1 to MPO” value was “had no effect on MPO-apoA-1 binding”.

As for “N-Ac-(L) AEYHAKATEHLSTL (Ac-AEYHAKATEHLSTL; listed as Homo sapiens) [L-ApoA-MPO peptide]”, the “effect on binding of apo A-1 to MPO” value is “inhibited binding of apo A-1 to MPO”.

The record behind these values is patent US7776563B2, “Methods for identifying agents for treating cardiovascular disease using inhibition of myeloperoxidase binding” (The Cleveland Clinic Foundation, priority 2004, dated 2010).
